Data published in paper PMC5291076, “Analyzing native membrane protein assembly in nanodiscs by combined non-covalent mass spectrometry and synthetic biology” (eLife, 2017).

B1: Phospho-N-acetylmuramyl-pentapeptide-transferase B.subtilis (enzyme, B. subtilis, UniProt Q03521 1-324, looked up)
chain: MLEQVILFTILMGFLISVLLSPILIPFLRRLKFGQSIREEGPKSHQKKSGTPTMGGVMIILSIIVTTIVMTQKFSEISPEMVLLLFVTLGYGLLGFLDDYIKVVMKRNLGLTSKQKLIGQIIIAVVFYAVYHYYNFATDIRIPGTDLSFDLGWAYFILVLFMLVGGSNAVNLTDGLDGLLSGTAAIAFGAFAILAWNQSQYDVAIFSVAVVGAVLGFLVFNAHPAKVFMGDTGSLALGGAIVTIAILTKLEILLVIIGGVFVIETLSVILQVISFKTTGKRIFKMSPLHHHYELVGWSEWRVVVTFWAAGLLLAVLGIYIEVWL
notes: MraY translocase of B. subtilis; theoretical mass of the construct 37.88 kDa; also called Bs-MraY; B. subtilis MraY; source: cell-free (CECF, E. coli A19 lysate), co-translationally inserted into nanodiscs, purified (Streptactin)
B2: Human proton channel - voltage sensing domain (domain or fragment, UniProt Q96D96 75-223, looked up)
chain: APAPGPAPRAPLDFRGMLRKLFSSHRFQVIIICLVVLDALLVLAELILDLKIIQPDKNNYAAMVFHYMSITILVFFMMEIIFKLFVFRLEFFHHKFEILDAVVVVVSFILDIVLLFQEHQFEALGLLILLRLWRVARIINGIIISVKTR
modifications: in some samples uniformly 15N, 2H isotope labeled
notes: voltage-sensing domain of the human proton channel Hv1, residues 75-223; lacks the intracellular domain; theoretical mass of the construct 20.80 kDa; Construct in pET15b described in Li et al., 2015; a C-terminal StrepII tag was added here by QuickChange mutagenesis; also called hHv1-VSD; hHv-1-VSD
B3: pH-gated potassium channel KcsA (natural protein)
chain: SALHWRAAGAATVLLVIVLLAGSYLAVLAERGAPGAQLITYPRALWWSVETATTVGYGDLYPVTLWGRLVAVVVMVAGITSFGLVTAALATWFVGREQERRGHFVRHSEKAAEEAYTRTTRALHERFDRLERMLDDNRR
modifications: in some samples uniformly 15N, 2H isotope labeled
notes: pH-gated potassium channel KcsA; theoretical mass of the construct 21.33 kDa (22.70 kDa labeled); The printed mass (21.33 kDa) is larger than the natural chain, so tags or extra residues beyond the StrepII tag may be present; source: cell-free (CECF, E. coli A19 lysate), co-translationally inserted into nanodiscs, purified (Streptactin)
B4: Multidrug transporter EmrE (natural protein)
chain: MNPYIYLGGAILAEVIGTTLMKFSEGFTRLWPSVGTIICYCASFWLLAQTLAYIPTGIAYAIWSGVGIVLISLLSWGFFGQRLDLPAIIGMMLICAGVLIINLLSRSTPH
notes: small multidrug transporter EmrE; theoretical mass of the construct 13.00 kDa; source: cell-free (CECF, E. coli A19 lysate), co-translationally inserted into nanodiscs, purified (Streptactin)
B5: Phospho-N-acetylmuramyl-pentapeptide-transferase E.coli (enzyme, E. coli, UniProt P0A6W3 1-360, looked up)
chain: MLVWLAEHLVKYYSGFNVFSYLTFRAIVSLLTALFISLWMGPRMIAHLQKLSFGQVVRNDGPESHFSKRGTPTMGGIMILTAIVISVLLWAYPSNPYVWCVLVVLVGYGVIGFVDDYRKVVRKDTKGLIARWKYFWMSVIALGVAFALYLAGKDTPATQLVVPFFKDVMPQLGLFYILLAYFVIVGTGNAVNLTDGLDGLAIMPTVFVAGGFALVAWATGNMNFASYLHIPYLRHAGELVIVCTAIVGAGLGFLWFNTYPAQVFMGDVGSLALGGALGIIAVLLRQEFLLVIMGGVFVVETLSVILQVGSFKLRGQRIFRMAPIHHHYELKGWPEPRVIVRFWIISLMLVLIGLATLKVR
notes: MraY translocase of E. coli; theoretical mass of the construct 42.22 kDa; Dimer in DMPG and in DMPC/DMPG nanodiscs, monomer in DMPC nanodiscs; also called Ec-MraY; E. coli MraY; source: cell-free (CECF, E. coli A19 lysate), co-translationally inserted into nanodiscs, purified (Streptactin)

Key:
[1] = biological target: Proteorhodopsin (green variant); assay: native MS; LILBID-MS of PR synthesized in the presence of DH7PC and GDN and purified with 0.1% DH7PC; no nanodiscs
[2] = biological target: Proteorhodopsin (green variant); assay: native MS; LILBID-MS of the membrane protein in MSP1E3D1 (DMPG) nanodiscs; 50 mM ammonium acetate pH 6.8; anionic mode; laser pulse energy between 9.5 and 23 mJ; unlabeled and (KcsA) 15N, 2H labeled samples
[3] = biological target: the molecule itself; assay: as above
[4] = biological target: the molecule itself; assay: native MS; LILBID-MS of hHv1-VSD in nanodiscs of MSP1D1ΔH5 (19.49 kDa, His6-tag cleaved); unlabeled and 15N, 2H labeled samples

Row | Molecule | stoichiometry N [3] | further results
1 | Proteorhodopsin (green variant) (natural protein) |  | stoichiometry N [1]: 2; stoichiometry N [2]: < 6
2 | B1 | 2 | 
3 | B2 |  | stoichiometry N [4]: 2
4 | B3 | 4 | 
5 | B4 | 2 | 
6 | B5 | 2 | 
